Assay results from patent US20220275059A1 (HARBOUR ANTIBODIES, published 2022).
Positions count from the first letter of the chain named. Values joined by “and” are separate entries in the source; they are usually repeats but may differ in a detail not shown here. Equal values may be shown once.

Legend:
MERS-S1^A domain = molecular target: T1, MERS-S1^A domain (MERS-CoV EMC isolate, UniProt K9N5Q8 19-357); assay: ELISA on coated MERS-S1^A, OD450 [D]
T1 sequence: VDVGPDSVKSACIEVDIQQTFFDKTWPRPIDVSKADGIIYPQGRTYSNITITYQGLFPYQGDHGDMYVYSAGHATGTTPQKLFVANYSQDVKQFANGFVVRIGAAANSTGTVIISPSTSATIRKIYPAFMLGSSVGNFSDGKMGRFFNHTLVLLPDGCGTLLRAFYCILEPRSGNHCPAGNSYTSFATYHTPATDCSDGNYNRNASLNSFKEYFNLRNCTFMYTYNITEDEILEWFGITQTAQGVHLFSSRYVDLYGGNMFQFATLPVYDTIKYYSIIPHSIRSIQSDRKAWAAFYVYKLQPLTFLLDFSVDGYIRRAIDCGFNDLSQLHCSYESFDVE

[1] = molecular target: T2, MERS-S on pseudotyped VSV particles (MERS-S carrying a 16-a.a. cytoplasmic tail truncation) (MERS-CoV, UniProt K9N5Q8 18-1337); assay: cell-based or functional assay
[2] = molecular target: T3, NL63 coronavirus spike protein (HCoV-NL63, UniProt Q6Q1S2 16-1291); assay: ELISA on NL63 Secto
T3 sequence: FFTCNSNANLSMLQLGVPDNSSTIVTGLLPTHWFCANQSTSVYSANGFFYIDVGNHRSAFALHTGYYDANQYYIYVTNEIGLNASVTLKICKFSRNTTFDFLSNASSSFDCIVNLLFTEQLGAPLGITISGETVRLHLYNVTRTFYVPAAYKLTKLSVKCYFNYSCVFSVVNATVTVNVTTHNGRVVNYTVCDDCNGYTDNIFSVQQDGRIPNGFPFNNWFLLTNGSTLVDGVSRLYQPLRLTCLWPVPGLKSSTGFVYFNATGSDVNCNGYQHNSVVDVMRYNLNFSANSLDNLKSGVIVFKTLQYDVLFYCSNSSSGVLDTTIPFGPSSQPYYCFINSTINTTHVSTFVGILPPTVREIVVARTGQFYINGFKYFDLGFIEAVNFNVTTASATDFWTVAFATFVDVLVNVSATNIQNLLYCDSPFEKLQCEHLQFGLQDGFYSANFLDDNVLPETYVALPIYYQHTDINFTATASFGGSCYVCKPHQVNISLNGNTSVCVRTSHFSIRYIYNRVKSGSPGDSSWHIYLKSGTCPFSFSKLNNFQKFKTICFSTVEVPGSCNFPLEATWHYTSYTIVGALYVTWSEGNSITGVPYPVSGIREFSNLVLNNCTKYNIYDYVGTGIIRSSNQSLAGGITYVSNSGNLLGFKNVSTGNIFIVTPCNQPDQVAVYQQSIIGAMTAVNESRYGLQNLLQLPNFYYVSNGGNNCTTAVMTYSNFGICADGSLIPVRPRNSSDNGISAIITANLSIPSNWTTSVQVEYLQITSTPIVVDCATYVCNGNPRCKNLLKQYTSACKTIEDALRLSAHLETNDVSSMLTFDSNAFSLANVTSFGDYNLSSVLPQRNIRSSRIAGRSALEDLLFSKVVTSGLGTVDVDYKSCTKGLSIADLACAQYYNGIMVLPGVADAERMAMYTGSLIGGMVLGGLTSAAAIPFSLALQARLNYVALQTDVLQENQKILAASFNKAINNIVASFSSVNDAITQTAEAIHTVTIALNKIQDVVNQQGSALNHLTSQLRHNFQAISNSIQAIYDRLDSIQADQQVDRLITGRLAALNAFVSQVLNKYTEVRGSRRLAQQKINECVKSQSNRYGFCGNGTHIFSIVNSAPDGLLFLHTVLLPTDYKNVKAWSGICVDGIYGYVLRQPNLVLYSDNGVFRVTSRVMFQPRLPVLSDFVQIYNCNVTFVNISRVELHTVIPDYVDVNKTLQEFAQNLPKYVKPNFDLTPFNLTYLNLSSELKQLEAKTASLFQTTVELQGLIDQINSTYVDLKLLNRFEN

[3] = molecular target: T4, MERS-S1^B domain (receptor binding domain) (MERS-CoV EMC isolate, UniProt K9N5Q8 358-588); assay: ELISA on coated MERS-S1^B, OD450 [D]
[4] = molecular target: T5, MERS-CoV S S1 subunit (MERS-S1) (MERS-CoV EMC isolate, UniProt K9N5Q8 19-748); assay: ELISA on coated MERS-S1, OD450 [D]
[5] = molecular target: T2, MERS-S on pseudotyped VSV particles …; assay: cell-based or functional assay; remark: listed apart in the source
[6] = molecular target: MERS-S2 ectodomain (MERS-S2^ecto) (MERS-CoV EMC isolate, UniProt K9N5Q8 752-1262)
peptide 10 = assay: ELISA on coated overlapping MERS-S2 peptides, A450 [D00032 Fig. 14(B]
peptide 11 = assay: as above
[7] = molecular target: T5, MERS-CoV S S1 subunit (MERS-S1); assay: see FIG. 29A
[8] = molecular target: T5, MERS-CoV S S1 subunit (MERS-S1); assay: MERS-S1 specific ELISA
[9] = molecular target: T4, MERS-S1^B domain (receptor binding …); assay: see FIGS. 5(A) and 29(A)
[10] = molecular target: T4, MERS-S1^B domain (receptor binding …); assay: see FIG. 5A

B1: 1.6c7 (antibody, V domains shown)
VH: QVQLQQSGPGLVKPSQTLSLTCAISGDSVSSDSAAWNWIRQSPSRGLEWLGRTYFRSKWNNHYAVSVKSRITINPDTSKNQFSLLLNPVTPEDTAVYYCARATLARGALDYWGQGTLVTVSS
VL: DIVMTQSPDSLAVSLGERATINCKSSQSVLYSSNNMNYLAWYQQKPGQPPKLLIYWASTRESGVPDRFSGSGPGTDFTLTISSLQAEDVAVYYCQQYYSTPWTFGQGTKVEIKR
binding result (MERS-S1^A domain): no binding (tested: about 5x10^5 ng/ml)
IC50, neutralisation of MERS-S VSV pseudovirus on Vero cells [1]: 0.367 µg/ml and 2.45 nM
binding result [2]: no binding (tested: 25.00 (no unit printed))
binding result [3]: no binding (tested: about 5x10^5 ng/ml)
binding result [4]: no binding (tested: about 5x10^5 ng/ml)
IC50, MERS-S pseudovirus (human IgG1) [5]: 2.45 nM
IC50, neutralization of MERS-S pseudovirus infectivity (1.6c7 antibody, H2L2) [5]: ~0.59 µg/mL
EC50 (read off the curve) [6]: ~0.03 µg/mL
binding result (peptide 10): no binding
binding result (peptide 11): no binding

B2: 7.8h1 (antibody, V domains shown)
VH: QVQLVQSGAEVKKPGASVKVSCKASGYTFTSYDINWVRQATGQGLEWMGWMNPISGNTGYAQKFQGRVTMTRNTSRSTAYMELSSLRSEDTAVYYCARGQWLFDYWGQGTLVTVSS
VL: DIQMTQSPSTLSASIGDRVTITCRASQTISSWLAWYQQKPGKAPKLLIYKASSLESGVPSRFSGSGSGTEFTLTISSLQPDDFATYYCQQYNFYSYTFGQGTKLEIRR
binding result [7]: binds

B3: 5F1 heavy chain-only antibody (antibody, V domains shown)
VH: EVQLVESGGGLVQPGGSLRLSCAASGFTFSSYWMHWVRQAPGKGLVWVSRINSDGSSTSYADSVKGRFTISRDNAKNTLYLQMNSLRAEDTAVYYCGNPYFDYWGQGTLVTVSS
binding result [8]: binds

B4: 7.7a9 (antibody, V domains shown)
VH: EVQLLESGGGSVQPGGSLRLSCEASGFTFNTYPMSWVRQAPGKGLEWVSGISGSGDRTFYEDSVKGRFTISRDNSKNTLYLQMHSLRGEDTAVYYCAKDLGGEGYWGQGTLVTVSS
VL: QAVVTQESALTTSPGETVTLTCRSSTGAVTTSNYANWVQKKPDHLFTGLIGGTNNRAPGVPARFSGSLIGDKAALTITGAQTEDEAIYFCALWYSNHSVFGGGTKLTVLG
binding result [9]: binds

B5: 7.4f3 (antibody, V domains shown)
VH: B4 VH with S11L, A24D, F27V, N30S, T31S, Y32N, A40G, H84N, G88A, Y105N
VL: B4 VL with T31I, K40E, L45S, S95N, H97Q
binding result [10]: binds
